In US20190175754A1 (UNIVERSITY OF CINCINNATI, published 2019):
Values belong to the molecule of their own block, whether it stands above or below them.

How the values were obtained:
[1] = target: FLT3 on the surface of MONOMAC-6 cells (FLT3-overexpressing AML cell line) (human) (UniProt P36888); experiment: flow cytometry of Cy5.5+ MONOMAC-6 cells, 50 nM Cy5.5-conjugated nanoparticles, 1 h; negative control conjugate (background uptake)
[2] = target: T1, FLT3 on the surface of MONOMAC-6 cells (FLT3-overexpressing AML cell line) (human, UniProt P36888 27-993); experiment: flow cytometry of Cy5.5+ MONOMAC-6 cells, 50 nM Cy5.5-conjugated nanoparticles, 1 h
T1 construct: whole, on cells; Endogenous receptor on a cell line; also called FMS-like tyrosine kinase 3; FLT3 receptor
T1 sequence (looked up): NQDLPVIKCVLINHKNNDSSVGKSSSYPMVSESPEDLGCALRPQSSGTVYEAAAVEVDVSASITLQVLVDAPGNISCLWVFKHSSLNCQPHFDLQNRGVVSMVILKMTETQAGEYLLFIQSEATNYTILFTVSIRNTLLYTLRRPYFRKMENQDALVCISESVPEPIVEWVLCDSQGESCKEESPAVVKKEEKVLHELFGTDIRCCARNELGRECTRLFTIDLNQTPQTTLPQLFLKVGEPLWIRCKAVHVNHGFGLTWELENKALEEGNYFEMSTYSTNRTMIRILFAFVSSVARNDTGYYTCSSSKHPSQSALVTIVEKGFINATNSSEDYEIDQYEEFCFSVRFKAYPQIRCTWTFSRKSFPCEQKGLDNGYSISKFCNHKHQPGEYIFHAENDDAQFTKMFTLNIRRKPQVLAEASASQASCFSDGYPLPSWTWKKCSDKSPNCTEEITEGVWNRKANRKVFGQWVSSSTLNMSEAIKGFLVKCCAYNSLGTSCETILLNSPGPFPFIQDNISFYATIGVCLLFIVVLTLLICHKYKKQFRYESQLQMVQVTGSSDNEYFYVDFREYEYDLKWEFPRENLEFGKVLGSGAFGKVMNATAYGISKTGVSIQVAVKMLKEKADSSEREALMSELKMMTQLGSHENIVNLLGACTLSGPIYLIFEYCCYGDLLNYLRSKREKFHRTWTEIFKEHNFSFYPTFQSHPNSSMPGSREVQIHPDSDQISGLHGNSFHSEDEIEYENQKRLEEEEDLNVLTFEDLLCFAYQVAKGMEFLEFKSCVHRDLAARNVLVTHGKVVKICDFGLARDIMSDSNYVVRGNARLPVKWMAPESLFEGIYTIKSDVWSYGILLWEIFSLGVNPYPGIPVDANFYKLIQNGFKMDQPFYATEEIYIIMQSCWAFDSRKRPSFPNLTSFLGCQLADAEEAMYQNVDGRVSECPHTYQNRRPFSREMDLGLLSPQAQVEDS
Description: FIG. 2(A) G7-NH₂ PAMAM dendrimers were first conjugated with the near-infrared dye Cy5.5 using an N-hydroxysuccinimide ester linker sulfo-SMCC. Next, the fluorescently-tagged G7-NH₂ (G7-Cy5.5) was conjugated to human recombinant FLT3L (i.e., the soluble FLT3L form with 155 amino acids; ProSpec-Tany Technogene Ltd., East Brunswick, N.J.) at a 1:2 ratio using the heterofunctional linker sulfosuccinimidyl 4-((N-maleimidomethyl) cyclohexane-1-carboxylate) (sulfo-SMCC), resulting in the G7-FLT3L conjugates. FIG. 2(B) MONOMAC-6 cells were treated with Cy5.5-conjugated G7-FLT3L or G7-H2B nanoparticles for 24 hrs at the indicated doses. The proportion of Cy5.5⁺ cells were detected through flow cytometry analysis. FIG. 2(C) MONOMAC-6 and U937 cells were treated with 50 nM Cy5.5-conjugated G7-FLT3L or G7-H2B nanoparticles for 1 hr. The proportion of Cy5.5⁺ cells were detected through flow cytometry analysis. FIG. 2(D) MONOMAC-6 cells transfected with MSCV-PIG-miR-150 (miR-150-PIG) or MSCV-PIG (PIG) were treated with 50 nM Cy5.5-conjugated G7-FLT3L or G7-H2B nanoparticles for 1 hr. The proportion of Cy5.5⁺ cells were detected through flow cytometry analysis. Each experiment was repeated independently for at least three times. Average levels of at least three replicates are shown. […]

[3] = target: T1, FLT3 on the surface of MONOMAC-6 cells …; experiment: flow cytometry uptake by FLT3-overexpressing AML cells, against control protein conjugated nanoparticles
Method: FIG. 2(B) MONOMAC-6 cells were treated with Cy5.5-conjugated G7-FLT3L or G7-H2B nanoparticles for 24 hrs at the indicated doses. The proportion of Cy5.5⁺ cells were detected through flow cytometry analysis. FIG. 2(C) MONOMAC-6 and U937 cells were treated with 50 nM Cy5.5-conjugated G7-FLT3L or G7-H2B nanoparticles for 1 hr. The proportion of Cy5.5⁺ cells were detected through flow cytometry analysis. FIG. 2(D) MONOMAC-6 cells transfected with MSCV-PIG-miR-150 (miR-150-PIG) or MSCV-PIG (PIG) were treated with 50 nM Cy5.5-conjugated G7-FLT3L or G7-H2B nanoparticles for 1 hr. The proportion of Cy5.5⁺ cells were detected through flow cytometry analysis. Each experiment was repeated independently for at least three times. Average levels of at least three replicates are shown. FIG. 2(E) Cell viability (left panel) and apoptosis (right panel) of MONOMAC-6 cells treated with PBS (Ctrl), 50 nM G7-FLT3L or G7-H2B nanoparticles for 48 hr. *, P<0.05; **, P<0.01. […]

[4] = target: T1, FLT3 on the surface of MONOMAC-6 cells …; experiment: flow cytometry of Cy5.5+ MONOMAC-6 cells after 24 h treatment with Cy5.5-conjugated nanoparticles, compared with G7-FLT3L

uptake ratio (proportion of Cy5.5+ cells) [1]: 5.9%
Molecule: G7-H2B dendrimers (Cy5.5-labelled G7 PAMAM dendrimer conjugated to histone H2B, negative control)

uptake ratio (proportion of Cy5.5+ cells) [2]: 23.6% | fold specificity and efficiency in targeting and uptake against nanoparticles conjugated with control proteins [3]: 4 times
B1: G7-FLT3L dendrimers (Cy5.5-labelled G7 PAMAM dendrimer conjugated to human recombinant soluble FLT3L) (ligand, UniProt P49771 27-184, looked up)
chain: TQDCSFQHSPISSDFAVKIRELSDYLLQDYPVTVASNLQDEELCGGLWRLVLAQRWMERLKTVAGSKMQGLLERVNTEIHFVTKCAFQPPPSCLRFVQTNISRLLQETSEQLVALKPWITRQNFSRCLELQCQPDSSTLPPPWSPRPLEATAPTAPQP
modifications: conjugated through the sulfo-SMCC linker to a Cy5.5-labelled G7 PAMAM dendrimer (approximately 0.5-1 FLT3L molecules per dendrimer); attachment residue not stated
notes: extracellular domain; The protein is carried on a G7 PAMAM dendrimer labelled with Cy5.5; also called G7-FLT3L nanoparticles; G7-FLT3L conjugates

binding result [4]: binds
B2: G7-Flt3L dendrimers (Cy5.5-labelled G7 PAMAM dendrimer conjugated to the synthetic 74-amino acid mouse Flt3L peptide) (peptide)
peptide: SSNFKVKFRELTDHLLKDYPVTVAVNLQDEKHCKALWSLFLAQRWIEQLKTVAGSKMQTLLEDVNTEIHFVTSC
modifications: conjugated to a Cy5.5-labelled G7 PAMAM dendrimer; attachment residue not stated
notes: also called G7-Flt3L nanoparticles; engineered mouse Flt3L peptide
